Experimental data taken from the RNAGym collection of RNA variant scans (doi:10.7554/elife.80360).

B1: Hairpin Ribozyme (parent)
chain: GUCCUCUUUCACGUGCGCGUGAAAGAGAGAAGUGAACCAGAGAAACACACGUUGUGGUAUAUUACCUGGUA

Variants of: B1
Test: self-cleavage, relative activity (ratio to wild type); higher = more cleavage; co-transcriptional
Variant C10G A39G has a self-cleavage of 0.267. Work on C10G A39C yielded a self-cleavage of 0.357. With A11C U55C the self-cleavage was 0.183. Work on A11C U55A yielded a self-cleavage of 0.448. With A11C A35G the self-cleavage was 0.837. Work on A11C A35U yielded a self-cleavage of 0.643. A11C G51U gave a self-cleavage of 1.13. For A11C G51C, the self-cleavage was 0.8. Variant A11C G27U has a self-cleavage of 0.365. In the case of C10G U63G, the self-cleavage is reported as 0.113. In the case of C10G U63C, the self-cleavage is reported as 0.104. For C10G U63A, the self-cleavage was 0.158. Work on C10U G57C yielded a self-cleavage of 0.187. For C10A U14G, the self-cleavage was 0.632. Work on C10A U14A yielded a self-cleavage of 0.661. C10G U67G showed a self-cleavage of 0.205. Work on C10A G15C yielded a self-cleavage of 0.755. Variant C10A G15A has a self-cleavage of 0.773. In the case of C10U U20G, the self-cleavage is reported as 0.498. With C10U A30U the self-cleavage was 0.12. C10A U60C showed a self-cleavage of 0.579. In the case of C10A U60A, the self-cleavage is reported as 0.64. Variant C10A U60G has a self-cleavage of 0.377. C10G A22C showed a self-cleavage of 0.597. Variant C10U G21U has a self-cleavage of 0.815. For U9G A61U, the self-cleavage was 0.211. A11C C16G showed a self-cleavage of 0.578. Variant A11C C16A has a self-cleavage of 0.759. With C10G A35U the self-cleavage was 0.517. C10A U58A showed a self-cleavage of 0.485. C10U A41G gave a self-cleavage of 0.765. A11C A30C showed a self-cleavage of 0.147. Variant A11C A30U has a self-cleavage of 0.177. With U9G G19A the self-cleavage was 0.548. In the case of U9G U60C, the self-cleavage is reported as 1.04. Work on U9G U60A yielded a self-cleavage of 0.645. Variant C10U G34A has a self-cleavage of 1.04. A11G C16A showed a self-cleavage of 0.825. Variant A11G C16U has a self-cleavage of 0.902. C10A G19U showed a self-cleavage of 0.59. Work on C10U C38G yielded a self-cleavage of 0.269. With C10U C38U the self-cleavage was 0.387. Variant C10U C38A has a self-cleavage of 0.157. Variant C10G U52G has a self-cleavage of 0.631. For U9G A64C, the self-cleavage was 0.164. In the case of U9G A64G, the self-cleavage is reported as 0.478. In the case of C10U A36G, the self-cleavage is reported as 0.648. For C10U A36C, the self-cleavage was 0.662. With A11G A23U the self-cleavage was 0.93. Work on A11G A23C yielded a self-cleavage of 0.596. C10A G56U gave a self-cleavage of 0.148. C10G G54A showed a self-cleavage of 0.375. Work on U9G U62A yielded a self-cleavage of 0.0559. With C10G A59C the self-cleavage was 0.127. Variant C10G A59G has a self-cleavage of 0.171. Variant A11G A41G has a self-cleavage of 1.01. U9G A45G showed a self-cleavage of 0.205. For U9G A45U, the self-cleavage was 0.0827. A11C A26G showed a self-cleavage of 0.645. In the case of A11G A36C, the self-cleavage is reported as 0.508. Variant C10A G27C has a self-cleavage of 0.159. Variant A11G A61C has a self-cleavage of 0.14. Work on C10A U52G yielded a self-cleavage of 0.731. With U9G C38G the self-cleavage was 0.175. With C10A U20A the self-cleavage was 0.781. C10U C50U showed a self-cleavage of 0.391. C10U C50A gave a self-cleavage of 0.18. Work on C10A U33A yielded a self-cleavage of 0.153. Work on C10G U33G yielded a self-cleavage of 0.25. With C10G U33C the self-cleavage was 0.0987. For C10A A41C, the self-cleavage was 0.752. C10A A41U showed a self-cleavage of 1.04. A11C G21U showed a self-cleavage of 0.799. Variant A11G A64G has a self-cleavage of 0.507. A11G A64U showed a self-cleavage of 0.111. With A11G A64C the self-cleavage was 0.114. With C10U G69U the self-cleavage was 0.217. C10U G69A gave a self-cleavage of 0.405. In the case of C10A A23G, the self-cleavage is reported as 0.6. In the case of C10A A23U, the self-cleavage is reported as 0.666. With C10U U60C the self-cleavage was 0.992. With C10G G19C the self-cleavage was 0.539. In the case of C10A U62C, the self-cleavage is reported as 0.241. C10A U62G showed a self-cleavage of 0.162. In the case of C10A A36G, the self-cleavage is reported as 0.856. Work on C10A A36U yielded a self-cleavage of 0.43. Work on U9G A26G yielded a self-cleavage of 0.386. Variant U9G A26C has a self-cleavage of 0.418. C10U C18A gave a self-cleavage of 0.956. Variant C10U C18U has a self-cleavage of 0.95. For U9G G57C, the self-cleavage was 0.232. Variant A11G A49C has a self-cleavage of 0.124. Work on C10G G40C yielded a self-cleavage of 0.122. Work on A11C G56C yielded a self-cleavage of 0.108. U9G A35C showed a self-cleavage of 0.637. Work on C10A C66A yielded a self-cleavage of 0.283. With C10A C66G the self-cleavage was 0.158. C10A C66U gave a self-cleavage of 0.312. With A11C A22C the self-cleavage was 0.803. Variant A11G A24C has a self-cleavage of 0.746. C10G C18G gave a self-cleavage of 0.621. C10G C18A gave a self-cleavage of 0.907. With A11C U53C the self-cleavage was 0.681. In the case of U9G G25U, the self-cleavage is reported as 0.194. U9G G25C showed a self-cleavage of 0.255. Work on A11G A30G yielded a self-cleavage of 0.269. Work on A11G A30C yielded a self-cleavage of 0.146. A11C A41G showed a self-cleavage of 0.701. C10U A11C gave a self-cleavage of 0.696. Work on U9G G32C yielded a self-cleavage of 0.0561. For C10A A44G, the self-cleavage was 0.178. With U9G U55A the self-cleavage was 0.179. C10U U62A gave a self-cleavage of 0.234. Work on C10U U63C yielded a self-cleavage of 0.102. Work on C10A G57A yielded a self-cleavage of 0.162. For C10U C48A, the self-cleavage was 0.104. For C10U C48G, the self-cleavage was 0.134. C10U C12A showed a self-cleavage of 0.574. With C10G U70C the self-cleavage was 0.93. Variant C10G U70A has a self-cleavage of 0.592. Variant C10G G17A has a self-cleavage of 0.676. For C10G G57A, the self-cleavage was 0.0913. C10G G57C gave a self-cleavage of 0.124. For C10G U58A, the self-cleavage was 0.591. In the case of C10G A36U, the self-cleavage is reported as 0.336. C10G G13C showed a self-cleavage of 0.401. For C10U A39C, the self-cleavage was 0.458. Variant U9G G15A has a self-cleavage of 0.646. A11C A39U gave a self-cleavage of 0.37. With A11C A44G the self-cleavage was 0.197. For A11C A44C, the self-cleavage was 0.0983. For U9G G21U, the self-cleavage was 0.674. Variant U9G G21C has a self-cleavage of 0.736. Variant C10U A28G has a self-cleavage of 0.822. Variant C10U A44C has a self-cleavage of 0.135. C10G G51C gave a self-cleavage of 0.585. With C10A C46A the self-cleavage was 0.109. C10A C46U gave a self-cleavage of 0.2. C10A C46G gave a self-cleavage of 0.1. Work on U9G A31U yielded a self-cleavage of 0.1. In the case of C10U A35C, the self-cleavage is reported as 0.871. Work on C10U U53G yielded a self-cleavage of 0.725. C10U U53A showed a self-cleavage of 0.733. Work on C10G C46U yielded a self-cleavage of 0.0874. Variant A11C A24G has a self-cleavage of 0.539. With C10G A47C the self-cleavage was 0.307. For C10A G25A, the self-cleavage was 0.187. Work on C10A G25C yielded a self-cleavage of 0.227. Variant C10A G25U has a self-cleavage of 0.356. C10A G34U gave a self-cleavage of 1.01. With C10A G34A the self-cleavage was 0.92. For A11G A35G, the self-cleavage was 0.764. In the case of C10A C12A, the self-cleavage is reported as 0.476. Work on C10G U55G yielded a self-cleavage of 0.195. Variant C10G U55A has a self-cleavage of 0.316. In the case of U9G A30G, the self-cleavage is reported as 0.0174. For A11C G68U, the self-cleavage was 0.307. With U9G U67A the self-cleavage was 0.0846. A11C C18G showed a self-cleavage of 0.775. Work on A11C C18U yielded a self-cleavage of 0.94. Work on C10G A23C yielded a self-cleavage of 0.416. Variant C10U G54A has a self-cleavage of 0.561. For C10U G54U, the self-cleavage was 0.452. A11C G15U showed a self-cleavage of 0.996. With C10A A22U the self-cleavage was 0.632. In the case of C10A A22G, the self-cleavage is reported as 0.607. For C10U G27U, the self-cleavage was 0.225.
